According to the supplement of paper PMC10598134:
± gives the standard deviation.

Test: collision cross section of modified peptide (TIMS, N2, iRT-aligned); higher = larger / more extended gas-phase ion
Experimental: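 1/K0 was aligned run-wise to spiked iRT peptides and converted to CCS in N2 (Mason-Schamp). Values are the mean of 1-3 technical replicates for the most abundant feature at each charge state.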

[1] = charge state: 2, modification: Malonyl
[2] = charge state: 2, modification: Phospho (Y)
[3] = charge state: 2, modification: Glutarylation
[4] = charge state: 3, modification: Glutarylation
[5] = charge state: 2, modification: Formyl
[6] = charge state: 3, modification: Formyl
[7] = charge state: 2, modification: hydroxyisobutyryl
[8] = charge state: 2, modification: Hydroxyproline
[9] = charge state: 2, modification: Methyl (R)
[10] = charge state: 3, modification: Methyl (R)
[11] = charge state: 2, modification: Methyl (K)
[12] = charge state: 3, modification: Methyl (K)
[13] = charge state: 2, modification: GlyGly (K)
[14] = charge state: 3, modification: GlyGly (K)
[15] = charge state: 2, modification: Citrullination (R)
[16] = charge state: 2, modification: Biotin
[17] = charge state: 2, modification: Dimethyl (K)
[18] = charge state: 3, modification: Dimethyl (K)
[19] = charge state: 2, modification: Nitro (Y)
[20] = charge state: 3, modification: hydroxyisobutyryl
[21] = charge state: 2, modification: Propionyl
[22] = charge state: 2, modification: Acetyl (K)
[23] = charge state: 3, modification: Citrullination (R)
[24] = charge state: 3, modification: HexNAc (ST)

With “SLFFGGKGAPLQR [_SLFFGGK(Malonyl)GAPLQR_]” the collision cross section [1] was 399.96 ± 0.61 Å².

With SFEDIHQYR [_SFEDIHQY(Phospho (Y))R_] the collision cross section [2] was 367.21 ± 0.78 Å².

In the case of “VYIASSSGSTAIKK [_VYIASSSGSTAIK(Gluratylation)K_]”, the collision cross section [3] is reported as 420.03 ± 1.5 Å² and the collision cross section [4] is reported as 512.2 ± 1 Å².

Substance LDHLAEKFR [_LDHLAEK(Formyl)FR_] has a collision cross section [5] of 364.92 ± 0.89 Å² and a collision cross section [6] of 435.6 ± 2.1 Å².

IQTKAGEATVK [_IQTK(Succinyl)AGEATVK_] gave a collision cross section (charge state: 2, modification: Succinyl) of 366.8 ± 0.24 Å².

“PANEKATDDYHYEK [_PANEK(Propionyl)ATDDYHYEK_]” gave a collision cross section (charge state: 3, modification: Propionyl) of 507.47 ± 0.5 Å².

“KFGVLSDNFK [_K(hydroxyisobutyryl)FGVLSDNFK_]” showed a collision cross section [7] of 378.39 ± 0.91 Å².

With “LGVPGLPGYPGR [_LGVPGLPGYP(Hydroxyproline)GR_]” the collision cross section [8] was 362.53 ± 0.8 Å².

With VRFHNPR [_VR(Methyl (R))FHNPR_] the collision cross section [9] was 340.13 ± 1.8 Å² and the collision cross section [10] was 406.89 ± 0.36 Å².

In the case of LQLEIDQKK [_LQLEIDQK(Gluratylation)K_], the collision cross section [3] is reported as 373.2 ± 0.7 Å².

Substance “PGGEGPQCEKTTDVK [_PGGEGPQCEK(Malonyl)TTDVK_]” has a collision cross section [1] of 427.2 Å².

Substance “DTGEKLTVAENEAETK [_DTGEK(Methyl (K))LTVAENEAETK_]” has a collision cross section [11] of 429.8 ± 2.5 Å² and a collision cross section [12] of 482 ± 3.4 Å².

In the case of “DASTLQSQKAEGTGDAK [_DASTLQSQK(GlyGly (K))AEGTGDAK_]”, the collision cross section [13] is reported as 451.81 ± 1.4 Å² and the collision cross section [14] is reported as 505.67 ± 1.1 Å².

“ATVASSTQKFQDLGVK [_ATVASSTQK(Formyl)FQDLGVK_]” gave a collision cross section [5] of 442.05 ± 0.78 Å².

“AQVLAGGRGK [_AQVLAGGR(Citrullination (R))GK_]” showed a collision cross section [15] of 333.54 ± 0.75 Å².

In the case of KFGVLSDNFK [_K(Biotin)FGVLSDNFK_], the collision cross section [16] is reported as 394.71 ± 3.8 Å².

“VTLEVGKVIQQGR [_VTLEVGK(GlyGly (K))VIQQGR_]” showed a collision cross section [13] of 431.32 ± 0.96 Å² and a collision cross section [14] of 486.06 ± 1.6 Å².

For “TEVLSPNSKVESK [_TEVLSPNSK(Crotonyl)VESK_]”, the collision cross section (charge state: 2, modification: Crotonyl) was 417.97 ± 0.81 Å² and the collision cross section (charge state: 3, modification: Crotonyl) was 452.38 ± 1.3 Å².

“TEVLSPNSKVESK [_TEVLSPNSK(Dimethyl (K))VESK_]” gave a collision cross section [17] of 400.19 ± 1.6 Å² and a collision cross section [18] of 477.45 ± 2.4 Å².

Work on HGVYNPNK [_HGVY(Nitro (Y))NPNK_] yielded a collision cross section [19] of 338.11 ± 3.3 Å².

“GNDISSGTVLSDYVGSGPPKK [_GNDISSGTVLSDY(Nitro (Y))VGSGPPKK_]” gave a collision cross section (charge state: 3, modification: Nitro (Y)) of 549.52 Å².

“GGGDRGGFGPGK [_GGGDR(Methyl (R))GGFGPGK_]” showed a collision cross section [9] of 341.42 ± 0.86 Å² and a collision cross section [10] of 412.06 ± 3 Å².

Work on “VYIASSSGSTAIKK [_VYIASSSGSTAIK(Biotin)K_]” yielded a collision cross section [16] of 429.83 Å².

For “SLFFGGKGAPLQR [_SLFFGGK(Gluratylation)GAPLQR_]”, the collision cross section [3] was 407.53 ± 0.99 Å² and the collision cross section [4] was 479.63 ± 1.2 Å².

In the case of “LGVATVAKGVCGACK [_LGVATVAK(GlyGly (K))GVCGACK_]”, the collision cross section [13] is reported as 453.34 ± 1.4 Å² and the collision cross section [14] is reported as 497.41 ± 0.34 Å².

With “DESFLGKLGGTLAR [_DESFLGK(Gluratylation)LGGTLAR_]” the collision cross section [3] was 418.47 ± 2.1 Å² and the collision cross section [4] was 488.45 ± 2.4 Å².

In the case of “VGTASVLQPVKK [_VGTASVLQPVK(hydroxyisobutyryl)K_]”, the collision cross section [7] is reported as 388.32 ± 0.29 Å² and the collision cross section [20] is reported as 413.48 ± 1.6 Å².

In the case of “SGNLTEDDKHNNAK [_SGNLTEDDK(Formyl)HNNAK_]”, the collision cross section [5] is reported as 415.1 ± 1.8 Å² and the collision cross section [6] is reported as 466.8 ± 1.3 Å².

In the case of VDATADYICK [_VDATADY(Phospho (Y))ICK_], the collision cross section [2] is reported as 366.93 ± 0.064 Å².

Substance VNALKNLQVK [_VNALK(Propionyl)NLQVK_] has a collision cross section [21] of 372.11 ± 0.65 Å².

Work on LVFDEYLK [_LVFDEY(Nitro (Y))LK_] yielded a collision cross section [19] of 355.63 ± 0.17 Å².

Work on “IVFSGNLFQHQEDSKK [_IVFSGNLFQHQEDSK(Trimethyl (K))K_]” yielded a collision cross section (charge state: 3, modification: Trimethyl (K)) of 536.81 ± 0.89 Å².

With “DSINFLDHINGKK [_DSINFLDHINGK(Succinyl)K_]” the collision cross section (charge state: 3, modification: Succinyl) was 461.79 Å².

Work on “ISALQGKLSK [_ISALQGK(Gluratylation)LSK_]” yielded a collision cross section [3] of 358.52 ± 0.083 Å².

Work on “IHNAENIQPGEQKYEYK [_IHNAENIQPGEQK(Malonyl)YEYK_]” yielded a collision cross section (charge state: 3, modification: Malonyl) of 527.67 ± 2.8 Å².

For “IPQEKCILQTDVK [_IPQEK(Acetyl (K))CILQTDVK_]”, the collision cross section [22] was 431.12 ± 1.2 Å².

Work on “GYDVIAQAQSGTGK [_GY(Phospho (Y))DVIAQAQSGTGK_]” yielded a collision cross section [2] of 388.75 ± 0.77 Å².

Work on YTAQVDAEEK [_Y(Nitro (Y))TAQVDAEEK_] yielded a collision cross section [19] of 358.81 ± 0.55 Å².

For “GERGPPGPPGR [_GERGPPGP(Hydroxyproline)PGR_]”, the collision cross section (charge state: 3, modification: Hydroxyproline) was 409.61 ± 0.34 Å².

For “AGQKLIDVNHYAK [_AGQK(hydroxyisobutyryl)LIDVNHYAK_]”, the collision cross section [7] was 436.67 ± 0.29 Å² and the collision cross section [20] was 483.82 ± 2.8 Å².

“LQAAYAGDKADDIQK [_LQAAYAGDK(Propionyl)ADDIQK_]” gave a collision cross section [21] of 432.96 ± 1.1 Å².

In the case of GPPGAKGNK [_GPP(Hydroxyproline)GAKGNK_], the collision cross section [8] is reported as 311.98 ± 0.24 Å².

With “TLQKQSVVYGGK [_TLQK(Dimethyl (K))QSVVYGGK_]” the collision cross section [17] was 397.97 ± 0.88 Å² and the collision cross section [18] was 459.07 ± 1.6 Å².

For “GSGLGARGSSYGVTSTESYK [_GSGLGAR(Citrullination (R))GSSYGVTSTESYK_]”, the collision cross section [15] was 458.29 ± 0.18 Å² and the collision cross section [23] was 548.1 Å².

Work on “FSAYIKNSNPALNDNLEK [_FSAYIK(Butyryl)NSNPALNDNLEK_]” yielded a collision cross section (charge state: 2, modification: Butyryl) of 487.55 ± 1 Å² and a collision cross section (charge state: 3, modification: Butyryl) of 548.32 ± 1.1 Å².

Substance TTEETSKPK [_TTEETSK(Acetyl (K))PK_] has a collision cross section [22] of 334.91 ± 0.21 Å².

For SLKLNTAEDAK [_SLK(Propionyl)LNTAEDAK_], the collision cross section [21] was 376 ± 0.94 Å².

In the case of “DYSAPVNFISAGLKK [_DYSAPVNFISAGLK(Methyl (K))K_]”, the collision cross section [11] is reported as 451.15 ± 3.1 Å² and the collision cross section [12] is reported as 513.65 ± 3.5 Å².

Work on “DHSKPISNPSDNK [_DHS(HexNAc (ST))KPISNPSDNK_]” yielded a collision cross section (charge state: 2, modification: HexNAc (ST)) of 406.95 ± 0.13 Å² and a collision cross section [24] of 479.5 ± 0.17 Å².

In the case of “LSESHPDATEDLQR [_LS(HexNAc (ST))ESHPDATEDLQR_]”, the collision cross section [24] is reported as 486.6 ± 0.17 Å².

For “SLGEPAAGEGSAKR [_SLGEPAAGEGSAK(Biotin)R_]”, the collision cross section [16] was 403.03 Å².

Substance “HFGPVPPSQGRGR [_HFGPVPPSQGR(Citrullination (R))GR_]” has a collision cross section [23] of 445.8 Å².

In the case of “VDIDAPDVSIEGPDAKLK [_VDIDAPDVSIEGPDAK(GlyGly (K))LK_]”, the collision cross section [13] is reported as 470.72 ± 1.4 Å² and the collision cross section [14] is reported as 499.87 ± 1.9 Å².

For “SKLLFSNTAAQK [_SK(Acetyl (K))LLFSNTAAQK_]”, the collision cross section [22] was 396.66 ± 1.3 Å².

GLQGPPGK [_GLQGPP(Hydroxyproline)GK_] showed a collision cross section [8] of 294.56 ± 0.29 Å².

In the case of ISALQGKLSK [_ISALQGK(Methyl (K))LSK_], the collision cross section [11] is reported as 354.46 ± 1.1 Å² and the collision cross section [12] is reported as 434.86 ± 2.4 Å².

In the case of RGATPPAPPR [_R(Methyl (R))GATPPAPPR_], the collision cross section [9] is reported as 338.68 ± 2.1 Å² and the collision cross section [10] is reported as 463.88 ± 2.9 Å².

With “TVSKVDDFLANEAK [_TVSK(hydroxyisobutyryl)VDDFLANEAK_]” the collision cross section [7] was 426.08 ± 0.56 Å².
